Test results published in US20210130437A1 (ALPINE IMMUNE SCIENCES, published 2021).

T1: CD96 (UniProt P40200 22-585, limits assumed)
T1 construct: whole, on cells; on transfected cells
T1 sequence (looked up): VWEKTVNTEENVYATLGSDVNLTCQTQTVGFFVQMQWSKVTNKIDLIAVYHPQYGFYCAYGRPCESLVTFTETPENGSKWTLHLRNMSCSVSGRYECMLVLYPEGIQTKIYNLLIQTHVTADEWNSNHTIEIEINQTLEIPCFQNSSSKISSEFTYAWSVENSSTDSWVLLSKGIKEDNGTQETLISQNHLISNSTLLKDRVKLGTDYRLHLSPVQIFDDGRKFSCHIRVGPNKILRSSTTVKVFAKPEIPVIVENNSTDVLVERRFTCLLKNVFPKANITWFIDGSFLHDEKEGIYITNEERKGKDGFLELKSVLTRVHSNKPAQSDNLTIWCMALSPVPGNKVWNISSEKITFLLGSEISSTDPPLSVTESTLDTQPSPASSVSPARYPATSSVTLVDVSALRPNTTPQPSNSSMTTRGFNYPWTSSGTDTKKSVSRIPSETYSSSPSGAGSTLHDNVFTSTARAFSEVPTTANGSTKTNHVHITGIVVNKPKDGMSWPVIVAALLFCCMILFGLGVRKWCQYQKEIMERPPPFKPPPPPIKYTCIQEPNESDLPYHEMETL

T2: TIGIT (Homo sapiens (Human), UniProt Q495A1 22-244)
T2 construct: on transfected cells
T2 sequence: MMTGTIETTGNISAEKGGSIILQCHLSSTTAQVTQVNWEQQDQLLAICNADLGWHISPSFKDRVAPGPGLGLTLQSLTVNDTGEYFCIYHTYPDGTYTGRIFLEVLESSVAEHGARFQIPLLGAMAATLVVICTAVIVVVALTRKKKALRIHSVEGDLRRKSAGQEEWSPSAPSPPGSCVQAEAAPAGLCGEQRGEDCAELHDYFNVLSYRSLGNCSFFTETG

T3: CD226 (Homo sapiens (Human), UniProt Q15762 19-336)
T3 construct: on transfected cells
T3 sequence: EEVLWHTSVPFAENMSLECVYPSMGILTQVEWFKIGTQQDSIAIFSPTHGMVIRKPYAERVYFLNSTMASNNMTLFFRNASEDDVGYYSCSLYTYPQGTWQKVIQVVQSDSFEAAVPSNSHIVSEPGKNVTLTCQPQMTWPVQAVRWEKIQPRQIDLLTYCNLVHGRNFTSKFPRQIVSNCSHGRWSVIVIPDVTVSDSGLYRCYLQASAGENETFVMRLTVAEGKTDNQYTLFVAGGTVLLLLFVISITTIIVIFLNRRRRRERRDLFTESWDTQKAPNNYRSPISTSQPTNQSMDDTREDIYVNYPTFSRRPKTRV

T4: TIGIT (UniProt Q495A1 22-244)
T4 construct: whole, on cells; cell-expressed counter structure
T4 sequence (looked up): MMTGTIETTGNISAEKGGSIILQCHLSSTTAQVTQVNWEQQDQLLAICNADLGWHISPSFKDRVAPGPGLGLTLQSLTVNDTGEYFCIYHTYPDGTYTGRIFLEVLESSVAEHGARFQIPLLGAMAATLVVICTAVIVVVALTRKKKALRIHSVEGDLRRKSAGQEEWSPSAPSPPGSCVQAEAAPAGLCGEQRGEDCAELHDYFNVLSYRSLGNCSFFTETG


Assays:
[1] = biological target: T1, CD96; assay: flow cytometry, transfected cells
[2] = biological target: T2, TIGIT; assay: flow cytometry, transfected cells
[3] = biological target: T3, CD226; assay: flow cytometry, transfected cells
[4] = biological target: T5, CD28 (Homo sapiens (Human), UniProt P10747 19-220); assay: flow cytometry, HEK293 cells transfected with CD28
T5 construct: Expressed on transfected HEK293 cells

[5] = biological target: T4, TIGIT; assay: flow cytometry, cells expressing TIGIT

Binder	MFI parental ratio [1]	MFI parental ratio [2]	MFI parental ratio [3]	MFI at 66.6 nM [4]	MFI at 25 nM [5]
variant CD155 IgV-Fc A81V, L83P (Fc fusion, not shown: a dimerising Fc or GST) WPPPGTGDVVVQAPTQVPGFLGDSVTLPCYLQVPNMEVTHVSQLTWARHGESGSMAVFHQTQGPSYSESKRLEFVAARLGVEPRNASLRMFGLRVEDEGNYTCLFVTFPQGSRSVDIWLRVL	0.8 ratio	1.1 ratio	1.1 ratio		
variant CD155 IgV-Fc P18T, F91S, R94H (Fc fusion, not shown: a dimerising Fc or GST) WPPPGTGDVVVQAPTQVTGFLGDSVTLPCYLQVPNMEVTHVSQLTWARHGESGSMAVFHQTQGPSYSESKRLEFVAARLGAELRNASLRMSGLHVEDEGNYTCLFVTFPQGSRSVDIWLRVL	0.8 ratio	1.1 ratio	1 ratio		
variant CD155 IgV-Fc V9L, V11M, P18S, N35S, S54G, Q62K, L79P, L104M, T107M, V115M (Fc fusion, not shown: a dimerising Fc or GST) WPPPGTGDLVMQAPTQVSGFLGDSVTLPCYLQVPSMEVTHVSQLTWARHGESGGMAVFHQTKGPSYSESKRLEFVAARPGAELRNASLRMFGLRVEDEGNYTCMFVMFPQGSRSMDIWLRVL					3000

Now from value to binder:

MFI parental ratio [1]	MFI parental ratio [2]	MFI parental ratio [3]	MFI at 66.6 nM [4]	MFI at 25 nM [5]	Binder
1.1 ratio	1.5 ratio	1.4 ratio			variant CD155 IgV-Fc P18L, L79V, F91S (Fc fusion, not shown: a dimerising Fc or GST) WPPPGTGDVVVQAPTQVLGFLGDSVTLPCYLQVPNMEVTHVSQLTWARHGESGSMAVFHQTQGPSYSESKRLEFVAARVGAELRNASLRMSGLRVEDEGNYTCLFVTFPQGSRSVDIWLRVL
			3070		WT CD80 ECD Fc (Fc fusion, not shown: a dimerising Fc or GST) VIHVTKEVKEVATLSCGHNVSVEELAQTRIYWQKEKKMVLTMMSGDMNIWPEYKNRTIFDITNNLSIVILALRPSDEGTYECVVLKYEKDAFKREHLAEVTLSVKADFPTPSISDFEIPTSNIRRIICSTSGGFPEPHLSWLENGEELNAINTTVSQDPETELYAVSSKLDFNMTTNHSFMCLIKYGHLRVNQTFNWNTTKQEHFPDN
